The values that follow come from US20070224188A1.

In the test the target is biotin-labeled soluble FcRn. The test can be described thus: FcRn ELISA pH 6.0. Background: ELISA stands for enzyme-linked immunosorbent assay.

anti-CD20 IgG1 E283S (antibody) showed a FcRn pH6.0 (% of wild type) of 143.

Substance anti-CD20 IgG1 D249M (antibody) yielded a FcRn pH6.0 (% of wild type) of 50.

The substance anti-CD20 IgG1 S440Y (antibody) displayed a FcRn pH6.0 (% of wild type) of 100.

anti-CD20 IgG1 A339M (antibody) displayed a FcRn pH6.0 (% of wild type) of 111.

Substance anti-CD20 IgG1 D280A (antibody) displayed a FcRn pH6.0 (% of wild type) of 55.

Take anti-CD20 IgG1 P343W (antibody): the FcRn pH6.0 (% of wild type) was found to be 56.

For the substance anti-CD20 IgG1 272R311I (antibody), the FcRn6.0 (% of wild type) worked out at 396.

anti-CD20 IgG1 K317P (antibody) had a FcRn pH6.0 (% of wild type) of 145.

Consider anti-CD20 IgG1 S442K (antibody), for which the FcRn pH6.0 (% of wild type) worked out at 138.

In turn, anti-CD20 IgG1 I332W (antibody) displayed a FcRn pH6.0 (% of wild type) of 123.

On to anti-CD20 IgG1 E272L (antibody), for which the FcRn pH6.0 (% of wild type) came to 129.

As to anti-CD20 IgG1 Y373W (antibody), the FcRn pH6.0 (% of wild type) is 75.

Substance anti-CD20 IgG1 P343V (antibody) yielded a FcRn pH6.0 (% of wild type) of 77.

For the substance anti-CD20 IgG1 V427N (antibody), the FcRn pH6.0 (% of wild type) stood at 192.

anti-CD20 IgG1 S254W (antibody) yielded a FcRn pH6.0 (% of wild type) of 0.

Turning to anti-CD20 IgG1 D376E (antibody), the FcRn pH6.0 (% of wild type) came out at 82.

As for anti-CD20 IgG1 L314F (antibody), the FcRn pH6.0 (% of wild type) was 42.

In turn, anti-CD20 IgG1 V279Y (antibody) yielded a FcRn pH6.0 (% of wild type) of 139.

anti-CD20 IgG1 G385E (antibody): the FcRn pH6.0 (% of wild type) was determined as 98.

For anti-CD20 IgG1 E283M (antibody), the FcRn pH6.0 (% of wild type) was found to be 95.

In the case of anti-CD20 IgG1 S440E (antibody), the FcRn pH6.0 (% of wild type) stood at 73.

anti-CD20 IgG1 D376P (antibody): the FcRn pH6.0 (% of wild type) came to 203.

With anti-CD20 IgG1 T256S (antibody), the FcRn pH6.0 (% of wild type) turned out to be 169.

Turning to anti-CD20 IgG1 K326W (antibody), the FcRn pH6.0 (% of wild type) is 93.

The substance anti-CD20 IgG1 V279M (antibody) registered a FcRn pH6.0 (% of wild type) of 122.

anti-CD20 IgG1 Q311K (antibody): the FcRn pH6.0 (% of wild type) was 165.

For anti-CD20 IgG1 D265H (antibody), the FcRn pH6.0 (% of wild type) is 79.

The substance anti-CD20 IgG1 V262L (antibody) returned a FcRn pH6.0 (% of wild type) of 525.

The substance anti-CD20 IgG1 S440I (antibody) displayed a FcRn pH6.0 (% of wild type) of 96.

anti-CD20 IgG1 S440D (antibody) yielded a FcRn pH6.0 (% of wild type) of 72.

Regarding anti-CD20 IgG1 Q311S (antibody), the FcRn pH6.0 (% of wild type) was 97.

Turning to anti-CD20 IgG1 E382V (antibody), the FcRn pH6.0 (% of wild type) came out at 173.

anti-CD20 IgG1 256P332E440Y (antibody) returned a FcRn6.0 (% of wild type) of 117.

Consider anti-CD20 IgG1 S254H (antibody), for which the FcRn pH6.0 (% of wild type) is 0.

Substance anti-CD20 IgG1 332E440Y (antibody) had a FcRn6.0 (% of wild type) of 94.

Turning to anti-CD20 IgG1 A339S (antibody), the FcRn pH6.0 (% of wild type) was found to be 95.

In turn, anti-CD20 IgG1 S440T (antibody) came in with a FcRn pH6.0 (% of wild type) of 71.

As to anti-CD20 IgG1 V279S (antibody), the FcRn pH6.0 (% of wild type) came to 242.

Turning to anti-CD20 IgG1 V279L (antibody), the FcRn pH6.0 (% of wild type) came to 78.

Regarding anti-CD20 IgG1 N434F (antibody), the FcRn pH6.0 (% of wild type) was 1010.

anti-CD20 IgG1 T256W (antibody): the FcRn pH6.0 (% of wild type) worked out at 14.

In turn, anti-CD20 IgG1 E380T (antibody) showed a FcRn pH6.0 (% of wild type) of 172.

The substance anti-CD20 IgG1 330K332D (antibody) displayed a FcRn6.0 (% of wild type) of 88.
